This note sets out measurements from paper PMC8808280 (Nature, 2021).

The target of this experiment is T1, Receptor-associated protein (RAP) (human, UniProt P30533 35-353).
T1 sequence (looked up): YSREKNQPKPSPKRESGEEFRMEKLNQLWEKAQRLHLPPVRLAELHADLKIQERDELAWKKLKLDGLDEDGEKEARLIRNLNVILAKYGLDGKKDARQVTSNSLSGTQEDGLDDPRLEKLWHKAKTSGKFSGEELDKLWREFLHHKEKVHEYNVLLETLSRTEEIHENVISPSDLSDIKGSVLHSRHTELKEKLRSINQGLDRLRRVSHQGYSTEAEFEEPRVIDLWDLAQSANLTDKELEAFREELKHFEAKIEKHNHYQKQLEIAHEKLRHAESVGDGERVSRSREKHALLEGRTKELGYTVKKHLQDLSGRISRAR
In words: BLI. (In general: BLI is a label-free optical method that tracks binding on a fibre tip over time.)

B1: ApoER2 isoform 1 LBD-Fc fusion protein (Fc fusion)
chain: not shown
With B1, the binding result is “binds”.
